Results as given in patent US20210115102.

What was measured:
[1] = test system: CTSL1_1 FRET substrate (ALFKSSFP)
[2] = test system: CTSL1_2 8-mer FRET substrate Mca-ALFFSSPPK-Dnp
[3] = test system: CTSL1_2 9-mer FRET substrate Mca-ALFFSSPPSK-Dnp

Sequence of Cathepsin L (CTSL1), recombinant human (chain, as listed by the source): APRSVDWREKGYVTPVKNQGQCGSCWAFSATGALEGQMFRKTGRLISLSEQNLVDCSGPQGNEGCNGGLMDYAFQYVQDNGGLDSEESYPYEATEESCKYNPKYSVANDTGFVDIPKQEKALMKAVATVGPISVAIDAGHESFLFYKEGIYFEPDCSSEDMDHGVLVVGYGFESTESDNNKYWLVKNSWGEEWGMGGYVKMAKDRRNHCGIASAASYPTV
Sequence of ALU30-6 (chain, as listed by the source): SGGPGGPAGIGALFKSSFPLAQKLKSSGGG
Sequence of ALU30-15 (chain, as listed by the source): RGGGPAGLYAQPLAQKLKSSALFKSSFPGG
Sequence of ALU30-18 (chain, as listed by the source): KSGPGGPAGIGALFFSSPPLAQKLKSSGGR
Sequence of ALU30-13 (chain, as listed by the source): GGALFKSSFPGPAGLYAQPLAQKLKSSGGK
Sequence of ALU30-8 (chain, as listed by the source): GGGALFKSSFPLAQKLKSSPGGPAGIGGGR
Sequence of ALU30-11 (chain, as listed by the source): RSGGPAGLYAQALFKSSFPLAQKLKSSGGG
Sequence of ALU30-14 (chain, as listed by the source): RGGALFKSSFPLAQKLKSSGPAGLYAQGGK
Sequence of ALU30-9 (chain, as listed by the source): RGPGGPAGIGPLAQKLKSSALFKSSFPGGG
Sequence of ALU30-16 (chain, as listed by the source): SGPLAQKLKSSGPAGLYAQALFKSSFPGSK
Sequence of ALU30-5 (chain, as listed by the source): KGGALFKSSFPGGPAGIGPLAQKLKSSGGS
Sequence of ALU30-12 (chain, as listed by the source): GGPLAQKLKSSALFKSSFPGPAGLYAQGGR
Sequence of ALU30-10 (chain, as listed by the source): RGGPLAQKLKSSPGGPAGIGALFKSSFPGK
Sequence of ALU30-17 (chain, as listed by the source): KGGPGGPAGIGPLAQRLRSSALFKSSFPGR
Sequence of ALU30-1 (chain, as listed by the source): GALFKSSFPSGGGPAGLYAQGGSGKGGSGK
Sequence of ALU30-7 (chain, as listed by the source): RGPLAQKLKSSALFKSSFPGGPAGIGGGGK

Substance: Cathepsin L (CTSL1), recombinant human
- 30-mer substrate degradation (MSP-MS) (ALU30-10): The most efficiently cleaved peptides were those containing the FAPa_1, CTSL1_1 and ADAM17_2 motifs, in multiple orders.
- 30-mer substrate degradation (MSP-MS) (ALU30-11): Peptides bearing the MMP14_1 motif with CTSL1_1 and ADAM17_2 were slightly lower efficiency.
- 30-mer substrate degradation (MSP-MS) (ALU30-12): Peptides bearing the MMP14_1 motif with CTSL1_1 and ADAM17_2 were slightly lower efficiency.
- 30-mer substrate degradation (MSP-MS) (ALU30-13): Peptides bearing the MMP14_1 motif with CTSL1_1 and ADAM17_2 were slightly lower efficiency.
- 30-mer substrate degradation (MSP-MS) (ALU30-14): Peptides bearing the MMP14_1 motif with CTSL1_1 and ADAM17_2 were slightly lower efficiency.
- 30-mer substrate degradation (MSP-MS) (ALU30-15): Peptides bearing the MMP14_1 motif with CTSL1_1 and ADAM17_2 were slightly lower efficiency.
- cleavage efficiency of 30-mer library peptides (ALU30-15): lower CTSL1 activity
- 30-mer substrate degradation (MSP-MS) (ALU30-16): Peptides bearing the MMP14_1 motif with CTSL1_1 and ADAM17_2 were slightly lower efficiency.
- 30-mer substrate degradation (MSP-MS) (ALU30-17): CTSL1 treatment of the 30-mer peptide library produced cleavages in all peptides bearing a CTSL1_1 or CTSL1_2 motif
- 30-mer cleavage (substrate disappearance and product formation) (ALU30-18): Both peptides showed rapid disappearance of substrate (squares) and product formation from cleavage at the target scissile bond
- 30-mer substrate degradation (MSP-MS) (ALU30-18): CTSL1 treatment of the 30-mer peptide library produced cleavages in all peptides bearing a CTSL1_1 or CTSL1_2 motif
- 30-mer substrate degradation (MSP-MS) (ALU30-1): CTSL1 treatment of the 30-mer peptide library produced cleavages in all peptides bearing a CTSL1_1 or CTSL1_2 motif
- 30-mer substrate degradation (MSP-MS) (ALU30-5): The most efficiently cleaved peptides were those containing the FAPa_1, CTSL1_1 and ADAM17_2 motifs, in multiple orders.
- 30-mer cleavage (substrate disappearance and product formation) (ALU30-6): Both peptides showed rapid disappearance of substrate (squares) and product formation from cleavage at the target scissile bond
- 30-mer substrate degradation (MSP-MS) (ALU30-6): The most efficiently cleaved peptides were those containing the FAPa_1, CTSL1_1 and ADAM17_2 motifs, in multiple orders.
- 30-mer substrate degradation (MSP-MS) (ALU30-7): The most efficiently cleaved peptides were those containing the FAPa_1, CTSL1_1 and ADAM17_2 motifs, in multiple orders.
- 30-mer substrate degradation (MSP-MS) (ALU30-8): The most efficiently cleaved peptides were those containing the FAPa_1, CTSL1_1 and ADAM17_2 motifs, in multiple orders.
- 30-mer substrate degradation (MSP-MS) (ALU30-9): The most efficiently cleaved peptides were those containing the FAPa_1, CTSL1_1 and ADAM17_2 motifs, in multiple orders.
- FRET substrate cleavage [1]: CTSL1 cleaves the FRET substrate bearing the CTSL1_1 motif highly efficiently
- FRET substrate cleavage [2]: the new CTSL1_2 motif was not cleaved in the context of an 8-mer FRET peptide
- FRET substrate cleavage, catalytic efficiency [3]: This 9-mer FRET substrate bearing the CTSL1_2 motif produced comparable catalytic efficiency to the CTSL1_1 motif
